Test: soluble on expression in E. coli; label from the status in PepcDB or PDB records

| Sequence | soluble on expression in E. coli |
| --- | --- |
| GPGSMCNDDARQEGVQWPSSQQLAALADIEGDVQMKAAQLGLLSSEYRANIARVLHHYEPQAATFRTIIYASEQKRKAVERELVWTERIALLQEQRCGTTIVSTRDLMVLEREPLHPVECSLKECYQKLENVAYNELCVLRNYEYPPRQAVATMRMIMRVRGEEDLSWENVQVVLSENYFYTFFVSRMRTLLQKRLPDDVLEELEQYCLNPEHAPEALAVVSVPLGVIGSLLHAVRDYFQVMDLVKRPVEPMSVEERRKKAGELRRALQTLKEDAATATEGMADLKARIASKFVTVRDEYDDTMCPLHDDLEKKTEDFLKVLSGDIPAEEGATGEGECPDAM | not soluble |
| MAHHHHHHMPTPRETVVAFLTQACCGTIVALHRMGGMEVMLYKEQLVVMLTRYFNSCWNSLLSGDDPYVVESFNMMKHDNPGCVMRYLFSVGTSVLPDEPPQEIARYSPEDTDDLEAARVTISETLQQLLAERIAVDPFQHSCEGLSLSAERTAWSEKGCPPQNFFEIS | soluble |
| MSSNFIVESCSVDSEEGVKLHTRIFKPRNEGEEVSDDENLVIVLVHPFSLLGGCQALLKGIASELASKGFKSVTFDTRGAGKSTGRATLTGFAEVKDVVAVCRWLCQNVDAHRILLVGSSAGAPIAGSAVEQVEQVVGYVSLGYPFGLMASILFGRHHKAILSSPKPKLFVMGTQDGFTSVSQLKKKLKSAVGRTETHLIEGVSHFQMEGPEYDSQVTDIICKFISSL | not soluble |
| MFYILNNVLKNIKTLDNVKSKFFLKDSFLKNKLKANNLDDNLSSHIFFNEIFVSLRDDEKKEEHKKVLLFNKVRNDKKHRKRAFQKRGYWKKMHYFIRKNNMMSYAFKVQNIDYEKIKKLKRGEVYSN | not soluble |
| EKKYIVGFKQTMSAMSSAKKKDVISQKGGKVEKQFKYVNAAAATLDEKAVKELKKDPSVAYVEEDHIAHEY | soluble |
| ELVVTQESALTTSPGETVTLTCRSSSGAVTTSNYATWVQEKPDHLFTGLIGGTNKRAPGVPARFSGSLIGDRAALTITGAQTEDEAIYFCALWNSNHLVFGGGTKLEIKRTVAAPSVFIFPPSDEQLKSGTASVVCLLNNFYPREAKVQWKVDNALQSGNSQESVTEQDSKDSTYSLSSTLTLSKADYEKHKVYACEVTHQGLSSPVTKSFNRGEC | soluble |
| MATVAFQTLGCKVNHYETEAIWQLFKGEGYEKVDFEQMADVYVINTCTVTNTGDKKSRQVIRRAIRKNPDAVICVTGCYAQTSPAEVMAIPGVDIVVGTQDRKKMLEYIEQYKKERQPINGVGNIMKSRVYEELDVPAFTDRTRASLKIQEGCNNFCTFCIIPWARGLMRSRDPKEVIKQAEQLVQAGYKEIVLTGIHTGGYGEDLKDYSLARLLEDLEQVNGLKRIRISSIEASQLTDEVIEVIDRSTKVVRHLHIPLQSGSDTVLKRMRRKYTMAFFAERLERLREALPGLAVTSDVIVGFPGETEAEFQETYDFIAKHKFSELHVFPYSKRTGTPAARMEDQVNEDVKNERVHRLIQLSDQLAKEYASQFEGEVLEMIPEERDKEEPNSGLYVGYTDNYLKVKIPATDEMIGKLVKVKITKAGYPYNEGEFVRVLDEEPQAVAHGLEHHHHHH | soluble |
| MAHHHHHHMSLAGQFTTFCRTHEQPMNEESCAVFLMAIEVAPSTRQQYARMLRSMLEMNRTPLDMVILGLQKIASRSETKQTRPSTKERGGRMYPQPDRLEGTCCLTTCVDNGELLVRGFGLDFQQFHTGVGRGLSFGLARGAEDGEGGSIPRLAVREDTRAGRLRQYKAMQDTSRKRKAYEAYDCTGDTISGSLGCHGAFHKTGSVEARCSNRGDMRFGPARGLAVGEARRPVRPSPEYCSIFGEIHHNADPGVVIDRIDVKGETAEGQELWLRAEERFFHDFNHNHAATITRRATRTRPTTPQNEHAIPLQQVNVPVLNLEWIQIRLNPATLERLMQVWGLVGRSPFPLSSSGKAREGSRSIPTADARLLNAAGIIEDASSTITGGWIIPFFGCGGENHRFTTTMDRVATRQEQRRAL | not soluble |
| MRKLKYQRDFFPLLHLNYGSNWRCGMDRIAYFKSLLEKNPDNPMVHYSLGLEYFKVKDYENAIKHLERYLELQEDEGAAYRTLAKCYEELGEFQKAIEVLEEGIRQAMKYNHPSMAQEYQQWIEELKGMAFLEHHHHHH | not soluble |
| MMGNDSYSSNRGSSRDVLSFLQNFLGGFYAKYGIEVKLVGGLSLSKFYYAFDAERNQFLARHFLPVLSYIKKDFNARAALGIVNVDIYEPGFNFIFGLAHPGLKVAVVSLYRLYPEFYGNPPDRKLLKERALKEVMHELGHVFGLGHCPNPKCVMHFSNSIIDTDIKSWMYCESCLRKLEKNLARSHVLEHHHHHH | not soluble |
| MEENTEQRVDLTLFSEKIQELKDQIASVIVGQEQTVDLVLAAILANGHVLIEGVPGVAKTLLARLTARLIDADFSRIQFTPDLMPSDVLGTTVFNMKTNDFDFHQGPIFADIVLVDEINRAPAKTQAALFEVMEERQISIDGITHKMGELYTILATQNPVEQEGTYKLPEAQLDRFLMKITMDYPSLEEEVDILERHHTNASLIKLDDIKPAITKEELLSLRAFMNQVFVDRTLLQYIALIVQQTRTSKAVYLGASPRASVAMLQASKAYALLQGRDFVTPEDIKFVAPYVLQHRLILTAEAEMEGYSPVKVTQRLIDKVEVPKLEHHHHHH | soluble |
| MGSDKIHHHHHHMNEILKNSPISRAKLSEITGLNKSTISSQVNTLLENKFIFEIGEGQSRGGRRPVMLVFNKNAGYSIGIDVGVDYINGILTDLEGNIVLEKSYNLPIPSSDEVKEILFTIIKYFVSHMPESPYGLIGIGICVPGLVDKQQKIIFMPNSKWEIKDLKAVIETEFNVPVFIENEANAGAYGEKVFGNTKNFSNIIYVSINVGIGIGIIINNELYKGINGFSGEMGHMAIDFNGPKCSCGNRGCWELYASEKALLNSFFKDGKAISCHEIIELAHKNDVEVLNALQNFGFYIGIGLTNILNTFDAEAVILRNHIIESNPIVLNAIKNAVSSRVYSQIEGTYELLPSSLGKNAPALGTTSIVIEHFLNK | not soluble |
| MGSDKIHHHHHHMDSEIIKALKRFGFTQQESIMYVTLCRHGALTGYEAAKLAGISRSNAYAALSSLVEKGGAVVASDDTSKYVPTPRKELLVTIRRHCDETLEFLEQHLPEEQPVEMPYLTVTGYQNTMDKVRNMLRLAQLRVYISMHSGNAAQLKEDMAACAARGLKVVILSDADPQISGAIFMHNAAGTGHIKLIADTREVITGVVDQAARTGQCLYSANEHLVYLMREALLNEIELIKIRSGMSGAEPEESPTRGK | not soluble |
| MSLSSLLIDLKGKELEQEEVELLSHPLVAGLILFTRNFENREQIQELIRSVRQRVKKPLLITVDQEGGRVQRFRDGFTMLPSMQAFQETLSATEQVSFAKEAGWQMAAEMIALDIDLSFAPVLDLGHECRAIGDRSFSSDVKSAVNLATAFIDGMHQAGMASTGKHFPGHGHVLADSHLETPYDDRTKEEIFSGDLQPFQQLISQNKLDAIMPAHVIYSQCDSQPASGSKYWLKEILRKKLNFQGTIFSDDLGMKGAGVMGNFVERSKKALNAGCDLLLLCNEREGVIQVLDNLKLTENQPHFMARQARLQSLFKRRVINWNDLISDQRWRLNYQKLADIQSRWLDIQAAKNDEGGSHHHHHH | soluble |
| MANSMATLSRRLYRSLLSNPRISQASMSFCTNNITSPEDSDFDELESPIEPKASDPVSRFSGEERVMEERPLENGLDSGIFKAILVGQVGQLPLQKKLKSGRTVTLFSVGTGGIRNNRRPLINEDPREYASRSAVQWHRVSVYPERLADLVLKNVEPGTVIYLEGNLETKIFTDPVTGLVRRIREVAIRRNGRVVFLGKAGDMQQPSSAELRGVGYY | soluble |
| MLPPPRREPDWSAQAFRWHRQGLAGWLEAVHEPHAVALDRLACVDAQREQLLANTRQFVAGLPANNVLLTGARGTGKSSLVKALLPEFGRDGLRLIEIDREHLADLPQLVELLSGRPERFVLFCDDLSFEHGDAGYKALKSALDGGLARRCDNLLVYATSNRRHLLPEQMSENREGWLRDGEIHPGEAVEEKVSLSDRFGLWLSFYPFDQDAYLAAVREWLGHFGLKYGDKAERAALQWSLSRGSRSGRVAWQFACHWAGSQKLARRSGKKLEHHHHHH | not soluble |
| MSLKILFSPSESKNENCTKNPIDENSFIFKELFPYRMEALKHYGEFIKNASLKNLQELFGIKNENEIDKFKHDLKQAPTQEAIMLYTGVSYEYLNFKALDKKSQAYILENTLIFSNLFGVVRANDTLPFYKFKQGAKIGNFTIEKFYKEHFSKALDEYLENEEILDLRAGFYDKFYTPKKKFYTYKFVKNGKVISHFAKAYRGILLSISAKNQVKNNKELLANLPSNLKLKEIQIKGLKEEIALEILDEGHHHHHH | soluble |
| MADAAKNALSSIFDKTKDVLSTAADATKGYASQAQQAIGKIIPGANHESDPNAAVAAAQAASGQPVDTTGGVPPAQ | not soluble |
| MSLAESQLSKLDVNLQSLNPYTFSKTRCIVNLHISDDTKNRDPSTTNGSYSNSQLLSNGEHVCYHFSQDYCVLSIYPVTDAITGKTVVVHLPHETFNDHHTFTMAEEDGCIVMDLILKTGLFLTLRFSLEYLFNRNADINSSWYSLLKPYDFTVRLPDYLYKVNSALSIVYLNDGGLLGLQKTQTSGSDEYDLHPVLFNDNSYFQSFTRFFSHNDSGRENVVSSVSYGDYHLLTLTENCKLRIWDLRTNSVTAQLNLITDPQDKHRKYESIGPYLALLDSVLVVFLPFGNGAFRTFQLSVNNSGGLVLTPRGELIRTNLSTASIWSLVDTKLTKPFELNIETSYLQMVVLWKSNTSIKLQILNFETEALDKHSWVEASNKSLPDILDNDILGDNFEQSLLDLKAHYTPAIYEEAQRILSANGIIFVPSQQNNDEYLSNLESILKDLKKHHDEPSSLTLYNGEVVMVNTLYLYNHFVYKINSKLESFYYNLTSEGHHHHHH | soluble |
| MAELLPLSPVPLYTQLKELLRERILDGTYPSHSRMPSESELGKAFDVSRITVRQALGDLQKEGLIFKIHGKGTFVAKPKAFQNVSTLQGLGESMTQMGYEVINRLRSFRHVPANALVAARLQVEEGSLVTEIRRVRLINREPVSLELTWLPKAVGEKLEKADLVTRDIFLLLENDCGIALGHADLAIDAVLADSDLTQALDVEEGSPIMRIERLTHAADGTPLDFEHLYYRGDAFQYRLRIDRQKGGKA | not soluble |
| MKNYIAIHPGEILREEYLKEYALSAYALAKALNVPRTRIERIVAENSRITPDTALRLASFFDTTAEFWLNMQAAYDVSVLQAEKADEFSKISKFECRV | not soluble |
| MPTLLIRLQGPLQSWGTRSRFDHRDTWPYPTKSGVVGLLAAALGRDRREDVSDLAALRMGVRVDRKGVLKVDYQTAQFVYRTEGYVAVSTPKEREWLSRYTKTPIRVDERNATVTSKRYFLSDAAFLVGLEGERALLEALHRALKNPRFPLYLGRKSYVPSPPPYLPDGLVEAPLAEALEGYPYLLGGKPPEDLLLALEAEEGRLVYDQPAGPFSERRFAARFVREEVLPKERVPEGPPAWEVARVAH | soluble |
| MITLEQKLEQYKHTYVQLKGELKWKTSDSRTGMMIAAMYAGSDKLFDLGRFLEISSYIKNQVGMFSYLKSYHRFVVAATLDIHFTDYKEAFRKFLDLYEQLVTGGFSRSIFTYLAAAVLLTEENEQHGAHIQRSMQVYKRMKKDHLFLTSTNDYPLAVLLAGQSEHVETLMDRVERLYQKLATAGLRKGNDLQFLSHILSLKKDVREELLVAKCTNIWNLLKQEKVKVKQMHYPAIGLLALLEDGEKEIHSIRAFIEKLQGDKLFRWHTDTNILIAIQLFVSQKGEESKATNTGLQTMIEVLIQAQQAAMMATIAASSAATSSASSSS | not soluble |

Source: the DeepSol protein solubility set
